T1: Recombinant human Guanylate Cyclase 1 (human, UniProt Q02846 52-1103)
T1 sequence (looked up): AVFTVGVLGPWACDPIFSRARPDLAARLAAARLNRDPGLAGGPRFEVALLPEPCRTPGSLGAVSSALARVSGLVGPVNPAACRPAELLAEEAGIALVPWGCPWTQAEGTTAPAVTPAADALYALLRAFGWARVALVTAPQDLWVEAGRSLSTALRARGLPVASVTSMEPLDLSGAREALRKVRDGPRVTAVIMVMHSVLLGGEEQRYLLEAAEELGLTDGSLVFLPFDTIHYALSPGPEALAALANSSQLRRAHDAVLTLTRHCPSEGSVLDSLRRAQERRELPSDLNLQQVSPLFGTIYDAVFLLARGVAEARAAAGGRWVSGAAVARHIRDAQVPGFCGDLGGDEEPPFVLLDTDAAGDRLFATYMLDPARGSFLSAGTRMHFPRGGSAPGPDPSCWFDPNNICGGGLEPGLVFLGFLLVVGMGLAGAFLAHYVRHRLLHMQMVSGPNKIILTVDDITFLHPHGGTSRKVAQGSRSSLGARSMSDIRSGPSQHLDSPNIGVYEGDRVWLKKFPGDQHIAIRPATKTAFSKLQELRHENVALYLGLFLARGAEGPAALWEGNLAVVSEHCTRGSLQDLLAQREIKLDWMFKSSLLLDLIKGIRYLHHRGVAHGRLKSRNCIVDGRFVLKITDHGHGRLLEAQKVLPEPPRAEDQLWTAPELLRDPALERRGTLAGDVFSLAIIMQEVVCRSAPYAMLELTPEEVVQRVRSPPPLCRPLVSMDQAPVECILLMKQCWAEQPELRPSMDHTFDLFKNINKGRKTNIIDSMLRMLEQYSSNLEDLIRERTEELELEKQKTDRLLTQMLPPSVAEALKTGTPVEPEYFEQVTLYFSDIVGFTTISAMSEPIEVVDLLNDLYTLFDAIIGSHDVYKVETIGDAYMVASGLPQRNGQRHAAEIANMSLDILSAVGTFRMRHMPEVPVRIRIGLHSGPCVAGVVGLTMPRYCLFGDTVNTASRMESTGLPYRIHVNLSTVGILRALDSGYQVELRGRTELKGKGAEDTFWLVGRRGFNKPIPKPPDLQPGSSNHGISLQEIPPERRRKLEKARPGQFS


Columns and labels:
[1] = target: T1, Recombinant human Guanylate Cyclase 1
[2] = target: T1, Recombinant human Guanylate Cyclase 1; assay: cell-based or functional assay

Binder | GC activity (cGMP synthesis) of cell membranes containing GC with ~10 µM GCAP1, 1 mM Mg2+ and 2 mM EGTA (absence of Ca2+) (nmol cGMP*min^−1*mg protein^−1) [1] | fold decrease of cGMP synthesis at 33 µM free Ca2+ (inhibiting conditions) against the maximal activation without Ca2+ [1] | fold decrease of cGMP synthesis at 33 µM free Ca2+ against the respective maximal activation without Ca2+ [2]
Guanylate Cyclase activating protein 1 (GCAP1) WT (natural protein, myristoylated forms were obtained by co-transformation with yeast N-myristoyl transferase; which form stood in each experiment is not stated) MGNVMSGKSVEELSSTECHQWYKKFMTECPSGQLTLYEFRQFFGLKNLSPSASQYVEQMFETFDFNKDGYIDFMEYVAALSLVLKGKVEQKLRWYFKLYDVDGNGCIDRDELLTIIQAIRAINPCSDTTMTAEEFTDTVFSKIDVNGDGELSLEEFIEGVQKDQMLLDTLTRSLDLTRIVRRLQNGEQDEEGADEAAEAAG | 20.4 | 34 fold | –
GCAP1 G86R+W94F (natural protein, human, UniProt P43080 1-201, looked up, myristoylated forms were obtained by co-transformation with yeast N-myristoyl transferase; which form stood in each experiment is not stated) MGNVMSGKSVEELSSTECHQWYKKFMTECPSGQLTLYEFRQFFGLKNLSPSASQYVEQMFETFDFNKDGYIDFMEYVAALSLVLKRKVEQKLRFYFKLYDVDGNGCIDRDELLTIIQAIRAINPCSDTTMTAEEFTDTVFSKIDVNGDGELSLEEFIEGVQKDQMLLDTLTRSLDLTRIVRRLQNGEQDEEGADEAAEAAG | – | – | 3 fold
GCAP1 G86R+W94L (natural protein, human, UniProt P43080 1-201, looked up, myristoylated forms were obtained by co-transformation with yeast N-myristoyl transferase; which form stood in each experiment is not stated) MGNVMSGKSVEELSSTECHQWYKKFMTECPSGQLTLYEFRQFFGLKNLSPSASQYVEQMFETFDFNKDGYIDFMEYVAALSLVLKRKVEQKLRLYFKLYDVDGNGCIDRDELLTIIQAIRAINPCSDTTMTAEEFTDTVFSKIDVNGDGELSLEEFIEGVQKDQMLLDTLTRSLDLTRIVRRLQNGEQDEEGADEAAEAAG | – | – | 4 fold
GCAP1 G86R (natural protein, human, UniProt P43080 1-201, looked up, myristoylated forms were obtained by co-transformation with yeast N-myristoyl transferase; which form stood in each experiment is not stated) MGNVMSGKSVEELSSTECHQWYKKFMTECPSGQLTLYEFRQFFGLKNLSPSASQYVEQMFETFDFNKDGYIDFMEYVAALSLVLKRKVEQKLRWYFKLYDVDGNGCIDRDELLTIIQAIRAINPCSDTTMTAEEFTDTVFSKIDVNGDGELSLEEFIEGVQKDQMLLDTLTRSLDLTRIVRRLQNGEQDEEGADEAAEAAG | – | – | 2 fold
